Laboratory results from patent US11325966.

Experiments:
Experiment in all cases: cell-based or functional assay
[1] = target: HIV-1 Env of pseudovirus R3265.c06 (HIV-1)
[2] = target: HIV-1 Env of pseudovirus Q259.d2.17 (HIV-1)
[3] = target: HIV-1 Env of pseudovirus C2101.c01 (HIV-1)
[4] = target: HIV-1 Env of pseudovirus 231966.c02 (HIV-1)
[5] = target: HIV-1 Env of pseudovirus T278-50 (HIV-1)
[6] = target: HIV-1 Env of pseudovirus WEAU_d15_410_787 (HIV-1)
[7] = target: HIV-1 Env of pseudovirus Ce1172_H1 (HIV-1)
[8] = target: HIV-1 Env of pseudovirus ZM249M.PL1 (HIV-1)
[9] = target: HIV-1 Env of pseudovirus 235-47 (HIV-1)
[10] = target: HIV-1 Env of pseudovirus CNE30 (HIV-1)
[11] = target: HIV-1 Env of pseudovirus BJOX015000.11.5 (HIV-1)
[12] = target: HIV-1 Env of pseudovirus C1080.c03 (HIV-1)
[13] = target: HIV-1 Env of pseudovirus 3415.v1.c1 (HIV-1)
[14] = target: HIV-1 Env of pseudovirus Du172.17 (HIV-1)
[15] = target: HIV-1 Env of pseudovirus X1193_c1 (HIV-1)
[16] = target: HIV-1 Env of pseudovirus RHPA4259.7 (HIV-1)
[17] = target: HIV-1 Env of pseudovirus 3103.v3.c10 (HIV-1)
[18] = target: HIV-1 Env of pseudovirus PVO.4 (HIV-1)
[19] = target: HIV-1 Env of pseudovirus BF1266.431a (HIV-1)
[20] = target: HIV-1 Env of pseudovirus 231965.c01 (HIV-1)
[21] = target: HIV-1 Env of pseudovirus Q23.17 (HIV-1)
[22] = target: HIV-1 Env of pseudovirus WITO4160.33 (HIV-1)
[23] = target: HIV-1 Env of pseudovirus CNE53 (HIV-1)
[24] = target: HIV-1 Env of pseudovirus ZM233M.PB6 (HIV-1)
[25] = target: HIV-1 Env of pseudovirus QH0692.42 (HIV-1)
[26] = target: HIV-1 Env of pseudovirus ZM214M.PL15 (HIV-1)
[27] = target: HIV-1 Env of pseudovirus Du422.1 (HIV-1)
[28] = target: HIV-1 Env of pseudovirus MS208.A1 (HIV-1)
[29] = target: HIV-1 Env of pseudovirus 263-8 (HIV-1)
[30] = target: HIV-1 Env of pseudovirus Ce1176_A3 (HIV-1)
[31] = target: HIV-1 Env of pseudovirus BJOX025000.01.1 (HIV-1)
[32] = target: HIV-1 Env of pseudovirus HIV-0013095-2.11 (HIV-1)
[33] = target: HIV-1 Env of pseudovirus 3016.v5.c45 (HIV-1)
[34] = target: HIV-1 Env of pseudovirus CAP210.2.00.E8 (HIV-1)
[35] = target: HIV-1 Env of pseudovirus HIV-16845-2.22 (HIV-1)
[36] = target: HIV-1 Env of pseudovirus THRO4156.18 (HIV-1)
[37] = target: HIV-1 Env of pseudovirus BJOX009000.02.4 (HIV-1)
[38] = target: HIV-1 Env of pseudovirus CNE8 (HIV-1)
[39] = target: HIV-1 Env of pseudovirus R1166.c01 (HIV-1)
[40] = target: HIV-1 Env of pseudovirus P0402_c2_11 (HIV-1)

**Q.** Which results are given for 354BG8 (antibody)?
**A.** IC50 in TZM-bl assay [1]: > 10 µg/mL; IC80 in TZM-bl assay [1]: > 10 µg/mL; IC50 in TZM-bl assay [2]: > 10 µg/mL; IC80 in TZM-bl assay [2]: > 10 µg/mL; IC50 in TZM-bl assay [3]: > 10 µg/mL; IC80 in TZM-bl assay [3]: > 10 µg/mL; IC50 in TZM-bl assay [4]: > 10 µg/mL; IC80 in TZM-bl assay [4]: > 10 µg/mL; IC50 in TZM-bl assay [5]: 1.71 µg/mL; IC80 in TZM-bl assay [5]: > 10 µg/mL; IC50 in TZM-bl assay [6]: 0.031 µg/mL; IC80 in TZM-bl assay [6]: 0.112 µg/mL; IC50 in TZM-bl assay [7]: 0.019 µg/mL; IC80 in TZM-bl assay [7]: 0.083 µg/mL; IC50 in TZM-bl assay [8]: > 10 µg/mL; IC80 in TZM-bl assay [8]: > 10 µg/mL; IC50 in TZM-bl assay [9]: 0.058 µg/mL; IC80 in TZM-bl assay [9]: 0.224 µg/mL; IC50 in TZM-bl assay [10]: 0.261 µg/mL; IC80 in TZM-bl assay [10]: 0.678 µg/mL; IC50 in TZM-bl assay [11]: > 10 µg/mL; IC80 in TZM-bl assay [11]: > 10 µg/mL; IC50 in TZM-bl assay [12]: > 10 µg/mL; IC80 in TZM-bl assay [12]: > 10 µg/mL; IC50 in TZM-bl assay [13]: > 10 µg/mL; IC80 in TZM-bl assay [13]: > 10 µg/mL; IC50 in TZM-bl assay [14]: 0.049 µg/mL; IC80 in TZM-bl assay [14]: 0.194 µg/mL; IC50 in TZM-bl assay [15]: 0.07 µg/mL; IC80 in TZM-bl assay [15]: 0.207 µg/mL; IC50 in TZM-bl assay [16]: 0.023 µg/mL; IC80 in TZM-bl assay [16]: 0.083 µg/mL; IC50 in TZM-bl assay [17]: 0.024 µg/mL; IC80 in TZM-bl assay [17]: 0.061 µg/mL; IC50 in TZM-bl assay [18]: 0.072 µg/mL; IC80 in TZM-bl assay [18]: 0.252 µg/mL; IC50 in TZM-bl assay [19]: > 10 µg/mL; IC80 in TZM-bl assay [19]: > 10 µg/mL; IC50 in TZM-bl assay [20]: > 10 µg/mL; IC80 in TZM-bl assay [20]: > 10 µg/mL; IC50 in TZM-bl assay [21]: 0.005 µg/mL; IC80 in TZM-bl assay [21]: 0.015 µg/mL; IC50 in TZM-bl assay [22]: 0.111 µg/mL; IC80 in TZM-bl assay [22]: 0.828 µg/mL; IC50 in TZM-bl assay [23]: 0.013 µg/mL; IC80 in TZM-bl assay [23]: 0.058 µg/mL; IC50 in TZM-bl assay [24]: 0.058 µg/mL; IC80 in TZM-bl assay [24]: 0.371 µg/mL; IC50 in TZM-bl assay [25]: 0.106 µg/mL; IC80 in TZM-bl assay [25]: 0.383 µg/mL; IC50 in TZM-bl assay [26]: 0.415 µg/mL; IC80 in TZM-bl assay [26]: 2.97 µg/mL; IC50 in TZM-bl assay [27]: 0.047 µg/mL; IC80 in TZM-bl assay [27]: 0.113 µg/mL; IC50 in TZM-bl assay [28]: > 10 µg/mL; IC80 in TZM-bl assay [28]: > 10 µg/mL; IC50 in TZM-bl assay [29]: 0.416 µg/mL; IC80 in TZM-bl assay [29]: 5.71 µg/mL; IC50 in TZM-bl assay [30]: 0.022 µg/mL; IC80 in TZM-bl assay [30]: 0.07 µg/mL; IC50 in TZM-bl assay [31]: > 10 µg/mL; IC80 in TZM-bl assay [31]: > 10 µg/mL; IC50 in TZM-bl assay [32]: > 10 µg/mL; IC80 in TZM-bl assay [32]: > 10 µg/mL; IC50 in TZM-bl assay [33]: > 10 µg/mL; IC80 in TZM-bl assay [33]: > 10 µg/mL; IC50 in TZM-bl assay [34]: > 10 µg/mL; IC80 in TZM-bl assay [34]: > 10 µg/mL; IC50 in TZM-bl assay [35]: 0.727 µg/mL; IC80 in TZM-bl assay [35]: 3.93 µg/mL; IC50 in TZM-bl assay [36]: > 10 µg/mL; IC80 in TZM-bl assay [36]: > 10 µg/mL; IC50 in TZM-bl assay [37]: > 10 µg/mL; IC80 in TZM-bl assay [37]: > 10 µg/mL; IC50 in TZM-bl assay [38]: > 10 µg/mL; IC80 in TZM-bl assay [38]: > 10 µg/mL; IC50 in TZM-bl assay [39]: > 10 µg/mL; IC80 in TZM-bl assay [39]: > 10 µg/mL; IC50 in TZM-bl assay [40]: 0.008 µg/mL; IC80 in TZM-bl assay [40]: 0.024 µg/mL
